We go through 9 compounds from US5705143A, “Biological targeting agents” (Amersham International PLC, priority 1994, dated 1998).

“Also recorded” adds a separate entry of the source. Bridge positions count the residues as written; N and C are the ends. Square brackets hold non-standard residues; d marks the D form. Peptide text beside a SMILES is read from it. * marks the point of attachment. Phe(ol) = N[C@H](CO)Cc1ccccc1; NHCH(CH2OH)2 = OCC(CO)N*

Data set [1] relates to growth hormone. As to conditions: relative to somatostatin = 100%; cited from earlier work.
The test system of data set [2] is somatostatin receptors. The data set can be described thus: Biodistribution in rats: uptake/retention in adrenals and pancreas (somatostatin receptor-enriched tissues). As to conditions: rat, i.v.; for Adrenal % Injected dose / Adrenal Relative concentration / Pancreas % Injected dose / Pancreas Relative concentration: carrier free (CF). The data set is classed as in vivo, Male Wistar rats. The method, then: In the present invention the peptides studied were radiolabelled with either ^123 I or ^99m Tc and their biodistributions studied in rats with organs of particular interest being the adrenals and pancreas. This is because somatostatin receptors have been shown in vitro to be enriched in a number of tissues including adrenals^(11,12), pancreas^(13,14), pituitary^(11,14) and brain^(15). […] Brain somatostatin receptors are not visualised when the compound is administered in vivo. In this study measurement of pituitary uptake was not sufficiently sensitive to distinguish specific and non-specific effects.
Carrier Effect on ^123 I--Compounds 1 and 6
For ^123 I--Compounds 1 and 6 the effect of carrier peptide on the biodistribution of the carrier-free ^123 I peptide was assessed by preparing 2 ml of a phosphate buffered solution of HPLC-purified carrier-free iodinated peptide as described above but then subdispensing 1 ml of this solution into a second vial containing carrier peptide.
A similar `carrier-effect` is anticipated for technetium labelled peptides, therefore the only valid comparison of biodistribution data for ^99m Tc and ^123 I labelled peptides is when both are carrier-added (CA).
(§1) Male Wistar rats were injected intravenously, under light anaesthesia with the test agent. At 2 minutes, 1 hour and 4 hours post-injection animals were sacrificed by cervical dislocation and various organs and tissue samples were removed for assay of radioactive content. The percentage injected dose in all dissected organs was calculated. In addition the % dose/gram tissue and the relative concentration of activity was calculated for selected organs. Relative concentration is the proportion of total activity in the organ divided by the proportion of bodyweight comprised by the organ. Thus, if a compound is uniformly disseminated throughout the body according to tissue weight then a given organ will have a relative concentration=1. A relative concentration>1 implies sequestration and/or retention of the compound and is a useful index where the absolute uptake (% injected dose per organ) is low.
(§2) Organs in which the test agent were looked for included the adrenals and the pancreas, where somatostatin receptors are known to be enriched (vide supra).

Data set [3] can be described thus: Biodistribution in rats: blood, kidney/bladder/urine, liver, gut, thyroid. The data set is classed as in vivo, Male Wistar rats. Particulars: rat, i.v., carrier free (CF). The procedure: as §1, §2
Data set [4] concerns carboxypeptidases. Particulars: in words; cited from earlier work.
A short description of data set [5]: Metabolic stability in rat kidney homogenate. The data set is classed as in vitro ADME. As to conditions: 37° C., approx. 1 and 3 hours, HPLC; FIG. 1; in words. The procedure:
Rat brain and kidney homogenates were produced by homogenising brain (1.71 g) and kidneys (2.41 g) in 10 vols phosphate buffered saline and centrifuging at 2000 rpm for 5 minutes.
Compound 4 (50 μg) was radiolabelled by stannous reduction of ^99m TcO4^- (0.2 GBq) at pH 9.0.
^99m Tc-Compound 4 solution (200 μl) was mixed with phosphate buffered saline (800 μl, control) rat kidney homogenate (800 μl) and rat brain homogenate (800 μl) and incubated at 37° C. HPLC analyses using the system described in Example 13 for ^99m Tc labelled peptides were performed on each sample at approx. 1 and 3 hours post-mixing.

Data set [6] concerns receptor. Particulars: Babich et al; in words; cited from earlier work.
The conditions of data set [7]: in words; cited from earlier work.

Turning to `C[C@@H](O)[C@@H]1NC(=O)[C@H](CCCCN)NC(=O)[C@@H](Cc2c[nH]c3ccccc23)NC(=O)[C@H](Cc2ccccc2)NC(=O)[C@@H](NC(=O)[C@H](N)Cc2ccccc2)CSSC[C@@H](C(=O)N[C@H](CO)Cc2ccccc2)NC1=O` [Phe(ol)] (H-[dF]CF[dW]KTC[Phe(ol)]; disulfide 2-7), the “Relative potency (%) of growth hormone inhibition in vivo” value in data set [1] was 650%.

For I-SS14: 123I labelled Somatostatin-14, the “somatostatin (SS) receptor binding in adrenals and pancreas” value in data set [2] (2 min, 1 and 4 hours p.i., in words, listed as 123 I-SS14) was “can be detected in the adrenal glands and pancreatic tissue; also recorded: marked SS-like binding of ^123 I-SS14 at 2 minutes post-injection (p.i.), but this activity was not retained at 1 and 4 hours p.i”. Further, in data set [2] (2 min pi), the “Adrenal % Injected dose” value came out at 0.19 % Injected dose, the “Adrenal Relative concentration” value was 7.6, the “Pancreas % Injected dose” value came out at 2.3 % Injected dose and the “Pancreas Relative concentration” value turned out to be 4.5. For the same compound, in data set [2] (1 hr pi), the “Adrenal % Injected dose” value worked out at 0.01 % Injected dose, the “Adrenal Relative concentration” value is 0.4, the “Pancreas % Injected dose” value was found to be 0.3 % Injected dose and the “Pancreas Relative concentration” value is 0.6. In data set [2] (4 hr pi), the “Adrenal % Injected dose” value came out at 0.01 % Injected dose, the “Adrenal Relative concentration” value is on record as 0.3, the “Pancreas % Injected dose” value stood at 0.2 % Injected dose and the “Pancreas Relative concentration” value was 0.4. Besides, in data set [3] (2 min pi), the “Blood % Injected dose” value is recorded as 16.2 % Injected dose; the “Gut % Injected dose” value is 9.9 % Injected dose; the “Kidney, Bladder & Urine % Injected dose” value was 3.4 % Injected dose; the “Liver % Injected dose” value stood at 7.2 % Injected dose. In addition, in data set [3] (2 min pi), the “Thyroid % Injected dose” value was 0.11 % Injected dose. Also, in data set [3] (1 hr pi), the “Blood % Injected dose” value stood at 5.5 % Injected dose; the “Gut % Injected dose” value is given as 19.9 % Injected dose; the “Kidney, Bladder & Urine % Injected dose” value amounted to 9.9 % Injected dose; the “Liver % Injected dose” value is listed as 2.2 % Injected dose. Moreover, the “Thyroid % Injected dose” value in data set [3] (1 hr pi) is on record as 1.10 % Injected dose. Moreover, in data set [3] (4 hr pi), the “Blood % Injected dose” value worked out at 6.1 % Injected dose; the “Gut % Injected dose” value worked out at 12.1 % Injected dose; the “Kidney, Bladder & Urine % Injected dose” value was found to be 17.9 % Injected dose; the “Liver % Injected dose” value amounted to 2.4 % Injected dose. For the same compound, the “Thyroid % Injected dose” value in data set [3] (4 hr pi) is on record as 2.00 % Injected dose.

Turning to `C[C@@H](O)[C@@H]1NC(=O)[C@H](CCCCN)NC(=O)[C@@H](Cc2c[nH]c3ccccc23)NC(=O)[C@H](Cc2ccccc2)NC(=O)[C@@H](NC(=O)[C@H](N)Cc2ccccc2)CSSC[C@@H](C(=O)N[C@H](CO)[C@@H](C)O)NC1=O` [Thr(ol)], in data set [1], the “Relative potency (%) of growth hormone inhibition in vivo” value was 7000%.

With `C[C@@H](O)[C@@H]1NC(=O)[C@H](CCCCN)NC(=O)[C@@H](Cc2c[nH]c3ccccc23)NC(=O)[C@H](Cc2ccccc2)NC(=O)[C@@H](NC(=O)[C@H](N)Cc2ccccc2)CSSC[C@@H](C(=O)NC(CO)CO)NC1=O` [Ser(ol)] (H-[dF]CF[dW]KTC-{NHCH(CH2OH)2}; disulfide 2-7), the “Relative potency (%) of growth hormone inhibition in vivo” value in data set [1] is on record as 2800%.

Take `C[C@H](O)[C@@H](NC(=O)[C@@H]1CSSC[C@H](NC(=O)[C@H](N)Cc2ccccc2)C(=O)N[C@@H](Cc2ccccc2)C(=O)N[C@H](Cc2c[nH]c3ccccc23)C(=O)N[C@@H](CCCCN)C(=O)N[C@@H]([C@@H](C)O)C(=O)N1)C(N)=O` [D-Thr(NH2)]: the “Relative potency (%) of growth hormone inhibition in vivo” value in data set [1] was 1160%.

On to somatostatin, for which the “susceptibility to metabolism by carboxypeptidases” value in data set [4] is “particularly susceptible to metabolism by carboxypeptidases”. Besides, the “metabolic stability in rat kidney homogenate” value in data set [5] is “rapidly metabolised”.

Take `CSCC[C@H](NC=O)C(=O)N[C@@H](CC(C)C)C(=O)N[C@@H](Cc1ccccc1)C(=O)NCCCCCCNC(=O)c1ccc(NN)nc1` [HP3, fMLFNH(CH2)6 NH--HYNIC]: the “in vitro receptor binding affinity” value in data set [6] is reported as “marginally better in vitro receptor binding affinity than HP2”.

Consider `C[C@H](O)[C@H](CO)NC(=O)[C@@H]1CSSC[C@H](NC(=O)[C@H](N)Cc2ccccc2)C(=O)N[C@@H](Cc2ccccc2)C(=O)N[C@H](Cc2c[nH]c3ccccc23)C(=O)N[C@@H](CCCCN)C(=O)N[C@@H]([C@@H](C)O)C(=O)N1` [D-Thr(ol)], for which the “Relative potency (%) of growth hormone inhibition in vivo” value in data set [1] is 1100%.

On to `C[C@@H](O)[C@@H]1NC(=O)[C@H](CCCCN)NC(=O)[C@@H](Cc2c[nH]c3ccccc23)NC(=O)[C@H](Cc2ccccc2)NC(=O)[C@@H](NC(=O)[C@H](N)Cc2ccccc2)CSSC[C@@H](C(=O)N[C@H](CO)[C@@H](C)O)NC1=O` [Octreotide], for which, in data set [7], the biological half-life result was “much longer biological half-life than natural somatostatin”.
